The nature of the data set: label from the status in PepcDB records.
For the sequence “MDNITNESDNLIQIFSHNPLALISCIILGIGLLFTFASRQFILVRVLLGNVSFIKQRILGVIFGIVGALLLLFATGNLNL”, the protein production entry is “failed”.
Then “MDNLMLNNKIYLEGTVVSELEFSHEMYGEGFYTFNLEVMRLSDSKDLLNITVSERLITTMDLKIGTEIVVEGQLRSYNKFIDGNNKLILTVFARNIEYCEERSKNPNEIFLDGFICKEPVYRTTPFGREIADLLLAVNRSYNKSDYIPTIAWGRNSRFCKTLEVGDNIRIWGRLQSREYQKKISETEVVKKIAYEVSISKMEKVSVESEQNESGEEISLEHHHHHH”, with “failed”.
Next, “MDNLNVFANEDNQVNGLKRPPPSRVCPRCDSDNTKFCFYNNYSESQPRYFCKNCRRYWTHGGALRNIPVGGSCRKPKRLKVDQSSISEMVSVENQPINHQSFRQTQENNEFVRSFDASSSATVTAVPNHFGYLSELHGVTNLLPIQSFRTMDCLDFGDESFQQGYYDVGSNDLIDNPLINQSIGGYVDNLTSYCINQVEPKLQPRYEHES”: “failed”; “MDNRKRLAYAIIQFLHGQLRHGGLSCDAQESLEVAIQCLETAFGVTLEDSDLALPQTLPEIFEAATSSKQEMPQDPRAPDRTPPSEEDSAEAERLKTEGNEQMKLENFEAAVHLYGKAIELNPANAVYFCNRAAAYSKLGNYVGAVQDCERAIGIDPGYSKAYGRMGLALSSLNKHAEAVAYYKKALELDPDNDTYKSNLKIAELKLREAPSPTGGVGSLDIAGLLNNPHFITMASSLMNSPQLQQLMSGMISGGHNPLGTPGSSPQQSDLASLIQAGQQFAQQMQQQNPEFVEQIRSQVVRSRTPSASHEEQQE”: “failed”; “MDNRSASLHSDIDTVLNNYDYDFAEVEIAVLGNGHINNTYKLTTPEVEFVLQQINHDVFPKTAELSSNAQKINLHLQRQKNIGNYPLSIPQQILSKTGETYSKVGTNYWRLMEFISNSYTLEEVESPEQAALVANAFAEFSCTLSDFPVEELAVIIEDFHDISFRMRQLNEAVENDLQDRLSSCQTLVNFCLDQQDFINHVIDISKKLPLHVTHNDTKINNLLFTEGDTPCAVIDLDTCMPGLLMHDFGDMVRTCCSNLAEDDTNIDAMIIKLDIFSALIQSYQNAFGTKMSALEKDSLIVGTKSVPFSLGTRFLTDYLNGDSYFQVSREKHNLDRAFNQIQLFILLCEAEPELIKLAMQALEHHHHHH”: “failed”.
As to “MDNVIKLVPSRWVSESVLMSISGLKKNTIKTARETSWMEGLEYKHVAPDGQPYDNSMCFYNRDEIDKWIERQPAAISRKKSA”, the protein production result is “failed”.
As to “MDPDNRVRQRAVKTLGKRGNPDVLEDLMEALKDSRQPVQEAASEALRKIIAASDSVPVLVKALDATDRNVRKAAIEALWKAGTPEAIPPLLRELDDADWYLRSRAADALADIASPEAALGLIKVMDIHDSPVKKIIVNALGKIGTVEAVEGLVKALEDLEHHHHHH”, the protein production result is listed as “not failed”.
For the sequence “MDPITHGALGAACAQAALGKYDKRIPWQAGALAGMAPDLDVFIRFSQEPLSLEQWHRYLTHSLMFIPIGGLIVALFLLCFSQYRQYWKITIGASLVGYATHCLLDSLTSYGTVLFWPWSDSRISWDIISIIDPVFTLPLLLGTAWSVIYQNQKAVIASLFFCILFLIFNTILHNRAVDGIHQYATTNNFKINHPRALPKLASSTYWRIIAKQQDCLIIAEAKTSLFYPTTIRLIRQALSFNESMIPFALSSGQKSDLATFHWFTDGFLIVANKNPLILADARYTIDDNPIFSLWGIEILPGQEHINKLSLPKINEYCESPDSERYKEDGLN”, the protein production entry is listed as “failed”.
Then “MDPKHKKLLRTQRLFLSEELLVDDLIIQYLYQEEILTESHLEEIQSESSSRNKTLKLLDILPSRGATAFHHFIKSLEKDFPWIRDKLLQLNEEEESPPPPFTVQCGVPDHILLTVPTTLHLNQLASRLGSEWKSVLLDLGLSCADLYRCCSDHPLAVQSQVLAGLVMWTQRNGRGATVQRLIQSLQAADVPPSVLQQVFK”, with “failed”; and “MDPSEYPFDIKAYKRQSEIEEMYIINRFRERRNKIGEDYPPHLSNSDNYFTQRYDAAKKEGISPLPKYTTTMRMFAYGVAADAVDEYSKIGGTTTLECLRRFCKGIIKLYETEYLRAPTQDDLQRILRVSEMRGFPGIIGSINCMQWEWKTCPTVWEGNTTRVNFFVSQHPYNIAYYLADGIYPSYPTFVKSIRLPQSEPDKLFVQRQEACHKDIERAFGVLQARFKIIRKPAGLWDIFELAIIMRSCKWVEYTTTILDPSATPICKSCA”, with “failed”; and “MDPTEMRYLEEENGAMMKTFKDAVTGFATGKTSLVFIGVEQLVQNFRAKRDFFNGAHITMTKVARTHY”, with “failed”.
Then “MDQCYFENSLSTECIIRSASRSDGCQMPKLFCQNLPPPLPPKKYAITSVPQSEKSESTPDVKLTEVFKATSHLPKHSLSTASEPSLEVSTHMNDERHKETFQVRECFGNTPNCPSSSSTNDFQANSGAIDAFCQPELDSISTCPNETVSLTTYFSVDSCMTDTYRLKYHQRPKLSFPESSGFCNNSLS”, with “failed”; and “MDQKEAPSFTEASVHDPSVIKVEDTFYVFGSHLAAAKTEDLRNWTQIATHVHEGNPLIPNVFVELAEAFEWANSNTLWAADVIQLEDGRFYMYYNACQGDAPRSALGVAVADDIEGPYENLGVFLKSGMWGEESPDGTIYDANVHPNAIDPHVFFDEEGKLWMVYGSYSGGIFILEMDPDTGFPLPGQGYGTHLMGGNHSRIEAPYIHYDKETEYYYLYVTFGGLDSTGGYNMRVARSKQPDGPYVDGEGHLMSEVRGAPGTLFDDASIEPYGVKQMGNFLFKRELGERGTGYVSPGHNSVYYDDEVDKIFLFFHTRFPERGEAHEIRVHQMFMNRKGWPVIAPYRYLEHHHHHH”, with “failed”; and “MDQTIHHQIQQALHFRTAVRVYKEEKISDEDLALILDAAWLSPSSIGLEGWRFVVLDNKPIKEEIKPFAWGAQYQLETASHFILLIAEKHARYDSPAIKNSLLRRGIKEGDGLNSRLKLYESFQKEDMDMADNPRALFDWTAKQTYIALGNMMMTAALLGIDTCPIEGFHYDKVNHILAKHNVIDLEKEGIASMLSLGYRLRDPKHAQVRKPKEEVISVVK”, with “not failed”.
Next, “MDRAAFPDCCVFLFGFFRRDFGAAGLYGMHDAGLLTGVQLVVAAITLTLFMLCIAQFMMTVKERGFKMALAISGFIFPSALLAGFIVNTLMTALRVKL”: “failed”; “MDRATEPVLFFFMAFFWALNYVMVKFAYAYDLSSSILLMRVLYASIFSSLIFIRQIKLPKSPLEHLKVFILANLNITGFFSLWFFGETGVSAAVTSIVIYSYPILATAFSYLFLGDRFGAMKTLGLILGFAGLVIIFIRSINVENLVDLIMLLVAAISWAIGTVFYRKYLLGYDSAGLNTLQLLYALPVVLLISLFTGGINIGLLQLKFNLIMIYMGSFGTAIAYFIYLYLYRKYKVSSISAYFFLVPAISVVLAAVLLKEPISALTIAGFAVMSAGIFLSGSFK”: “failed”.
As for “MDRFDAMRAFARVVETGSFTKAADTLHMSKTSVTQLVQQLEARLRVRLLNRTTRKVNATADGAAYYERVRQLLADLEDAETSLSGASATPGGRLRVDVPSPFASTILVPALPAFQARYPDILLHLGVSDREVDLIDENVDCVIRGGQIGNLSLAARHVGDLQLGVYASPGYLARAGVPAHPRELQDAQHRIIGFSWSRARRLFPCAMRRRADERIEVAGRHALLLDEGNAYLAAGLAAMGVIGVPTYMAEAHVERGALIRLFGDWRLDPMPLYIAYPQNRHVSAKLRVFIDWIVELMARHAPVTDAPPPHRSARMPGGPAAIPTDITGA”, the protein production entry was “failed”.
As to “MDRIVEIEKYSFDETYETSLRPSNFDGYIGQESIKKNLNVFIAAAKKRNECLDHILFSGPAGLGKTTLANIISYEMSANIKTTAAPMIEKSGDLAAILTNLSEGDILFIDEIHRLSPAIEEVLYPAMEDYRLDIIIGSGPAAQTIKIDLPKFTLIGATTRAGMLSNPLRDRFGMQFRLEFYKDSELALILQKAALKLNKTCEEKAALEIAKRSRSTPRIALRLLKRVRDFADVNDEEIITEKRANEALNSLGVNELGFDAMDLRYLELLTAAKQKPIGLASIAAALSEDENTIEDVIEPYLLANGYIERTAKGRIASAKSYSALKLNYEKTLFEE”, the protein production result is recorded as “not failed”.
Consider “MDRKLLHLLCSPDTRQPLSLLESKGLEALNKAIASGTVQRADGSIQNQSLHEALITRDRKQVFRIEDSIPVLLPEEAIATIQIANFPDKLEHHHHHH”, for which the protein production result is given as “not failed”.
Then “MDRLAHMQMFVAVVEAGSITAAAERMNLAKSAVSRRLAELEAGLGVSLIQRTTRRLNLTESGRTYYARCVAILADVEDAEAEVSQGHGALRGRLKVALPQAFGLLHLAPLIQTFMKRHPDVRLELDFNDRQVDLMQEGFDLAIRIATLADSTLIARRLAAIPHRVVASPGYLARRGTPRAAADLTQHDCLAYSNVRDPGLWSYRDPGGEPGQVRVVVRLAASSGEFLLQAAIADEGLVLLPAFYLHAALRSGQLSEVLADHRWPEPAAYAVYPPTRHLSARAHAFIDFLAGHLGGAGEPPAGDEVAPTLAPNTSAG”, with “failed”.
Next, “MDRLNQIQIILVETSLSANIGSAARAMKTMGLSNLRLVRPKNPLDEQATALAAGAKNILDNAQIFNTFDAAIADCQLIIGTSARLRHLQSTLVEPRECGKLIINNTNQHKIALIFGRERIGLTNEELLKCHYHLNVPTNPEYESLNLAMAVQLACYEIRMAWLELQKKPIIQPLTEEKNYPTAAAMAHFFDHTERL”: “not failed”; “MDRNEIGLNAGKVWQLLSNNEKWGYGTLKRKSGLKDKELGAALGWLSRENKIEFDQCDEELYVYLCVNVYIG”: “failed”; “MDRNGANMLDGRVESDAKGSFRKDYTKMENNNNGANISDGIYRIIRSFKSFSHFFIRYEEETKEREAEMEIGFPTDVKHLSHIGVDGTMTTFDNTSSSFPFSGFHLTGTVV”: “failed”.
As to “MDRNSKIVVGLVAVLSIAGLVLSLAGLLEGGEGTIAIIPVHGAIAYDTAGFSDGVDPDDIKELIAEANSDPSVKAIVLDINSPGGTPVASEELMDAINKSEKPVVSWISDSGTSGAYLAASASDRIVASPSAWVGSIGVILDLTDLSQMYRQMGINKYAIKAGEYKDMGADYRMITDEERQMLQSMVNEEYDYFIKTVAANRNLSVSYVKSLAEGRIFTGRQAVRNRLVDFTGGKDYAVEVAAKLAGVKNYNTITLEPPSGFLRVLSSMFSRLGFASGNTTEELQLH”, the protein production result is “failed”.
Then “MDRRDAMGLSGSGSYYIHRGLSGSGPPTFHGSPQQQQGLRHLPNQNSPFGSGSTGFGSPSLHGDPSLATAAGGAGALPHHIGVNMIAPPPPPSETPMKRKRGRPRKYGQDGSVSLALSSSSVSTITPNNSNKRGRGRPPGSGKKQRMASVGELMPSSSGMSFTPHVIAVSIGEDIASKVIAFSQQGPRAICVLSASGAVSTATLIQPSASPGAIKYEGRFEILALSTSYIVATDGSFRNRTGNLSVSLASPDGRVIGGAIGGPLIAASPVQVIVGSFIWAAPKIKSKKREEEASEVVQETDDHHVLDNNNNTISPVPQQQPNQNLIWSTGSRQMDMRHAHADIDLMRG”, with “failed”.

Values taken from a protein production outcome set (Wang et al. 2014).
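Note: failed if final PepcDB status was selected cloned or expressed and not failed if soluble or beyond.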
